8 molecules from patent US20230054718A1 (HIFIBIO HK, published 2023) can be followed below.

Several values for one entry are separate records, joined by “and”; a condition that tells them apart may be missing. Equal entries are not always repeated.

The target in test [1] is T1, Gal9 (Galectin-9) as used in Examples 3 to 5 (Homo sapiens (Human), UniProt O00182 1-323). As to the kind of experiment: CD44 blocking Assay: binding (%) of Gal9 to CD44 over antibody concentration; R2 printed 0,9790; no unit in the table, nM from the axis 'Antibody [nM]'.
T1 sequence (O00182 other isoform, or with tags, fused parts or gaps limits assumed): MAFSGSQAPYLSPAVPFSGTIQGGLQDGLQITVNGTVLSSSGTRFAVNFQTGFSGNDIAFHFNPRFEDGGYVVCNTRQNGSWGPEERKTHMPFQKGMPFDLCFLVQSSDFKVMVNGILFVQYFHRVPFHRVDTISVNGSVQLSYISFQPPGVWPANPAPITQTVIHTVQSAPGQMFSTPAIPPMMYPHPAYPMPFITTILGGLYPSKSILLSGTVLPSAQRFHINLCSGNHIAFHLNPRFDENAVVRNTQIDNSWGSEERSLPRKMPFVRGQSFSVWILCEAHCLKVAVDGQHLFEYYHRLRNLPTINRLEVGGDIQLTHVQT
Test [2] deals with T2, recombinant human Galectin-9 (human, UniProt O00182-2 1-323, limits assumed).
T2 construct: also called hGal9M; human Gal9
T2 sequence (O00182 other isoform, or with tags, fused parts or gaps limits assumed): as above
As to the kind of experiment: binding to recombinant human Gal-9, OD read-out over antibody concentration (nM); table under the curves.

Test [3] has as its target T1, Gal9 (Galectin-9) as used in Examples 3 …. The experiment in a line: Tim3 blocking Assay: binding (%) of Gal9 to TIM3 over antibody concentration; R2 printed 0,9956; no unit in the table, nM from the axis 'Antibody [nM]'.
Test [4] shares this target. The experiment in a line: Tim3 blocking Assay: binding (%) of Gal9 to TIM3 over antibody concentration; R2 printed 0,9756; no unit in the table, nM from the axis 'Antibody [nM]'.
For test [5], the target named is T3, recombinant mouse Galectin-9 (mouse, UniProt O08573-2 1-322, limits assumed).
T3 construct: also called mGal9M; mouse Gal9
T3 sequence (O08573 other isoform, or with tags, fused parts or gaps limits assumed): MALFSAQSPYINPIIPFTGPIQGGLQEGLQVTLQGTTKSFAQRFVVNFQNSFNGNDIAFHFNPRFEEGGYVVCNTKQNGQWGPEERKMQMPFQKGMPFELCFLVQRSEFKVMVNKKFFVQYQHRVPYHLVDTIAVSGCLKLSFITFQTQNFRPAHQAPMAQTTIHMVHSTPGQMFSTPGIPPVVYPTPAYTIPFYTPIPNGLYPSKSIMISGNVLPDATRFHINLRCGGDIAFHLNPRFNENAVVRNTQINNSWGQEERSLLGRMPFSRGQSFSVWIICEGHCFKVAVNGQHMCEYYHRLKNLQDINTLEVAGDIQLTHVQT
As to the kind of experiment: binding to recombinant mouse Gal-9, OD read-out over antibody concentration (nM); table under the curves.

Test [6] concerns the target T1, Gal9 (Galectin-9) as used in Examples 3 …. The experiment in a line: CD44 blocking Assay: binding (%) of Gal9 to CD44 over antibody concentration; ambiguous fit marked '~', R2 printed 0,9720; no unit in the table, nM from the axis 'Antibody [nM]'.
Test [7] addresses T3, recombinant mouse Galectin-9. As to the kind of experiment: BLI (Octet). The method, then:
(§1) Antibody binding affinity was measured using the commercially available Octet system from ForteBio (Creative Biolabs). According to the Creative Biolabs description, the Octet platform is based on bio-layer interferometry (BLI) technology that utilizes a whole set of system including instruments, biosensors, reagents and assay kits to support the evaluation of biomolecular interactions in 96- or 384-well microplates. Octet system uses Dip-and-Read assay mode to avoid the need of microfluidics, and enables the real-time, label-free analysis of affinity as well as kinetics. There are three biosensor-based assay orientations that can be used to explore antibody interaction: tandem blocking, premix blocking and classical sandwich. Compared to Biacore, Octet's dip-and-read assay allows longer analyte-binding steps and […] the rebinding of analyte to the ligand-coated sensors. Meanwhile, faster association time consumes less sample, which saves your precious proteins.
On the technique in general: In BLI a coated tip is dipped into the sample, and binding shifts an interference pattern.

Test [8] has as its target T2, recombinant human Galectin-9. The experiment in a line: BLI (Octet). As to the method:
as §1

Test [9] has as its target T1, Gal9 (Galectin-9) as used in Examples 3 …. The experiment in a line: Tim3 blocking Assay: binding (%) of Gal9 to TIM3 over antibody concentration; R2 printed 0,9960; no unit in the table, nM from the axis 'Antibody [nM]'.
For test [10] the target is unchanged. The experiment in a line: CD44 blocking Assay: binding (%) of Gal9 to CD44 over antibody concentration; ambiguous fit marked '~', R2 printed 0,9183; no unit in the table, nM from the axis 'Antibody [nM]'.
Test [11] shares this target. The experiment in a line: Tim3 blocking Assay: binding (%) of Gal9 to TIM3 over antibody concentration; ambiguous fit marked '~', R2 printed 0,9819; no unit in the table, nM from the axis 'Antibody [nM]'.
The target is the same in test [12]. The experiment in a line: Tim3 blocking Assay: binding (%) of Gal9 to TIM3 over antibody concentration; ambiguous fit marked '~', R2 printed 0,8826; no unit in the table, nM from the axis 'Antibody [nM]'.
For test [13] the target is unchanged. The experiment in a line: CD44 blocking Assay: binding (%) of Gal9 to CD44 over antibody concentration; very poor fit, R2 printed 0,07344; no unit in the table, nM from the axis 'Antibody [nM]'.
For test [14] the target is unchanged. As to the kind of experiment: CD44 blocking Assay: binding (%) of Gal9 to CD44 over antibody concentration; ambiguous fit marked '~', R2 printed 0,7386; no unit in the table, nM from the axis 'Antibody [nM]'.
The target is the same in test [15]. The experiment in a line: Tim3 blocking Assay: binding (%) of Gal9 to TIM3 over antibody concentration; ambiguous fit marked '~', R2 printed 0,8078; no unit in the table, nM from the axis 'Antibody [nM]'.

B1: HFB9-2hz14-hG1AA (antibody, human IgG1, V domains shown)
VH: EVQLVQSGAEVKKPGESLKISCKGSGYTFTEYTIHWVRQMPGKGLEWMGWFYPGSGSTEYSPSFQGQVTISADKSISTAYLQWSSLKASDTAMYYCERHGGYDGFDYWGQGTTVTVSS
VL: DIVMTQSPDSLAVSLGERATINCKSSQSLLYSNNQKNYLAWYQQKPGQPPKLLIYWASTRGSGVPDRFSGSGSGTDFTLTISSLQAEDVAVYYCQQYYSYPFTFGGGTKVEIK
notes: Humanized variant of HFB9-2; also called 2h14
Usually IC50 stands for the concentration that gives 50% inhibition. For orientation: EC50 means the midpoint of the concentration-response curve. As to B1, the IC50 worked out at 48.7 nM in [1] and 37.1 nM in [3]. Besides, the EC50 in [2] worked out at 0.144 nM.

B2: HFB9-2hz13-hG1AA (antibody, human IgG1, V domains shown)
VH: QVQLVQSGAEVKKPGASVKVSCKASGYTFTEYTIHWVRQAPGQGLEWMGWFYPGSGSTEYAQKFQGRVTMTADTSTSTVYMELSSLRSEDTAVYYCERHGGYDGFDYWGQGTTVTVSS
VL: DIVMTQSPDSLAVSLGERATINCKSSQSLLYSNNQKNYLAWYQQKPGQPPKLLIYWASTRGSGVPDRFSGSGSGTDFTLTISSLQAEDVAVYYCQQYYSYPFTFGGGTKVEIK
notes: Humanized variant of HFB9-2
On to B2, for which the IC50 in test [4] stood at 51.4 nM. Further, the concentration giving a half-maximal response (EC50) in [5] amounted to 0.496 nM; in [2], 0.128 nM.

B3: HFB9-2hz11-hG1AA (antibody, IgG1, V domains shown)
VH: QVQLVQSGAEVKKPGASVKVSCKASGYTFTEYTIHWVRQAPGQGLEWMGWFYPGSGSTEYAQKFQGRVTMTADTSISTAYMELSRLRSDDTAVYFCERHGGYDGFDYWGQGTTVTVSS
VL: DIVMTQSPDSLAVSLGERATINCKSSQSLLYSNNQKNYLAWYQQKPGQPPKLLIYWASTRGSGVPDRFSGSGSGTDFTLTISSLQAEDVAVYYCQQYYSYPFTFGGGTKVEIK
notes: Humanized variant of HFB9-2; also called HFB9-2hz11-hG1AA MF20191024
By koff is commonly meant a measure of how fast the partners let go of each other. Usually kon stands for the second-order rate constant of association. One may read the Kd as the concentration at which binding is half-saturated. Regarding B3, the IC50 was roughly 39.6 nM in test [6] and 25.3 nM in test [9]. In addition, the koff in test [7] was 0.000462 s⁻¹ and 0.000606 s⁻¹; in test [8] it was 0.000352 s⁻¹ and 0.000179 s⁻¹. The kon was 402000 M⁻¹ s⁻¹ and 166000 M⁻¹ s⁻¹ in test [7]; 72800 M⁻¹ s⁻¹ and 91400 M⁻¹ s⁻¹ in [8]. In addition, the Kd in test [8] is 4.84 nM and 1.96 nM. In addition, the values for the EC50 in [5] and in test [2] were 0.533 nM and 0.117 nM, respectively.

B4: HFB9-2hz12-hG1AA (antibody, V domains shown)
VH: QVQLVQSGAEVKKPGSSVKVSCKASGYTFTEYTIHWVRQAPGQGLEWMGWFYPGSGSAEYAQKFQGRVTITADESTSTAYMELSSLRSEDTAVYYCERHGGYDGFDYWGQGTTVTVSS
VL: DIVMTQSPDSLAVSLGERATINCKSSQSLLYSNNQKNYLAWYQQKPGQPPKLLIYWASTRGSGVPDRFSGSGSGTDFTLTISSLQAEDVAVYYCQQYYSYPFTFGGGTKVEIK
notes: humanized variant of HFB9-2
In the case of B4, in test [2], the EC50 was 0.57 nM.

B5: HFB9-1hz2-hG1AA (antibody, human IgG1, V domains shown)
VH: QVQLVQSGAEVKKPGSSVKVSCKASGYTFTDYTIHWVRQAPGQGLEWMGWFYPGSHSIKYAQKFQGRVTITADKSTSTAYMELSSLRSEDTAVYFCTRHGGYDGFDYWGQGTLVTVSS
VL: DIVMTQSPDSLAVSLGERATINCKSSQSLFYSTNQKNYLAWYQQKPGQPPKLLIYWASTRESGVPDRFSGSGSGTDFTLTISSLQAEDVAVYYCQQYYYFPYTFGQGTKLEIK
notes: Humanized variant of HFB9-1
With B5, the IC50 in test [10] was roughly 63.1 nM; in test [11], roughly 59.8 nM. Moreover, the values for the EC50 in test [5] and in test [2] were 0.828 nM and 0.15 nM, respectively.

B6: HFB9-1hz4-hG1AA (antibody, V domains shown)
VH: QVQLVQSGAEVKKPGSSVKVSCKASGYTFTDYTIHWVRQAPGQGLEWMGWFYPGSHSIKYAQKFQGRVTITADKSTSTAYMELSSLRSEDTAVYYCARHGGYDGFDYWGQGTLVTVSS
VL: DIVMTQSPDSLAVSLGERATINCKSSQSLFYSTNQKNYLAWYQQKPGQPPKLLIYWASTRESGVPDRFSGSGSGTDFTLTISSLQAEDVAVYYCQQYYYFPYTFGQGTKLEIK
notes: humanized variant of HFB9-1
With B6, the half-maximal effective concentration (EC50) in [2] is 1.84 nM.

B7: HFB9-1hz3-hG1AA (antibody, human IgG1, V domains shown)
VH: QVQLVQSGAEVKKPGSSVKVSCKASGYTFTDYTIHWVRQAPGQGLEWMGWFYPGSHSIKYAQKFQGRVTITADKSTSTAYMELSSLRSEDTAVYYCTRHGGYDGFDYWGQGTLVTVSS
VL: DIVMTQSPDSLAVSLGERATINCKSSQSLFYSTNQKNYLAWYQQKPGQPPKLLIYWASTRESGVPDRFSGSGSGTDFTLTISSLQAEDVAVYYCQQYYYFPYTFGQGTKLEIK
notes: Humanized variant of HFB9-1
As to B7, the IC50 in [12] was roughly 183 nM; in [13], 0.0616 nM. The values for the EC50 in [5] and in test [2] were 0.98 nM and 0.142 nM, respectively.

B8: HFB9-1hz1-hG1AA (antibody, human IgG1, V domains shown)
VH: QVQLVQSGAEVKKPGASVKVSCKASGYTFTDYTIHWVRQAPGQGLEWMGWFYPGSHSIKYAQKFQGRVTMTADTSISTAYMELSRLRSDDTAVYFCTRHGGYDGFDYWGQGTLVTVSS
VL: DIVMTQSPDSLAVSLGERATINCKSSQSLFYSTNQKNYLAWYQQKPGQPPKLLIYWASTRESGVPDRFSGSGSGTDFTLTISSLQAEDVAVYYCQQYYYFPYTFGQGTKLEIK
notes: Humanized variant of HFB9-1
Consider B8, for which the IC50 in test [14] was roughly 255 nM; in test [15], roughly 52.1 nM. The EC50 in test [2] stood at 0.153 nM.
